# Data published in patent US10946092 (BEIJING MABWORKS BIOTECH, dated 2021).
# Like-named read-outs stand apart in the source and are kept apart here.
# T1: recombinant human LAG3(ECD)-his (Sino Biological, Cat #: 16498-H08H) (human, UniProt P18627 23-450)
# T1 construct: extracellular domain; Bought protein; not shown: his tag
# T1 sequence (looked up): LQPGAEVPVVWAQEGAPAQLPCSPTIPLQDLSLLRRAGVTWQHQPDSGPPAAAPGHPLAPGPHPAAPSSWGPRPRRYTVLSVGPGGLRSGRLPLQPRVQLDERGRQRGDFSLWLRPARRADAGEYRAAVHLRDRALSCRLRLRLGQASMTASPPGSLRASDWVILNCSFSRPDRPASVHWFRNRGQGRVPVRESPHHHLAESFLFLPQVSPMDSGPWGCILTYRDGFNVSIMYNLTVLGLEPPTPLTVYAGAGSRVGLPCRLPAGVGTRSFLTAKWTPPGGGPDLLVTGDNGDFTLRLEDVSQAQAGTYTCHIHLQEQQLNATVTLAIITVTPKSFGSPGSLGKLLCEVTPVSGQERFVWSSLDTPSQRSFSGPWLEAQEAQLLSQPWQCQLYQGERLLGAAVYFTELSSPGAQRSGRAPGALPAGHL
# T2: Human PBMC
# T2 chain: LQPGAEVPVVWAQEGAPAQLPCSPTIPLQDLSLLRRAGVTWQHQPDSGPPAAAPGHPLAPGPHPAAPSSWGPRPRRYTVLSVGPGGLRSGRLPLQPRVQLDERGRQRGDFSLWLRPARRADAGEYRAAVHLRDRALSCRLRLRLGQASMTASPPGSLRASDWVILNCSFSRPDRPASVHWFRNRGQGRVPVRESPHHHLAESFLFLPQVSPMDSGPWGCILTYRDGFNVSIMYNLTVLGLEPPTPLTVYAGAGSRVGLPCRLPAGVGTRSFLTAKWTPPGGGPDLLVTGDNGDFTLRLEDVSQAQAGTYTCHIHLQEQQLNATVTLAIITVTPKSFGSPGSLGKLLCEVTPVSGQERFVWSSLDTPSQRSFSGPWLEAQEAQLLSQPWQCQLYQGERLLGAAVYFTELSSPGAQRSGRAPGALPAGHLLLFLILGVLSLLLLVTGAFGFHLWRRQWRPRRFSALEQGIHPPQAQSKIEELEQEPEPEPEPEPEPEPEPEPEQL
# T3: hLAG-3-hIg fusion protein (human LAG-3 extracellular domain fused to human Fc); Sino Biological, Cat #: … (human, UniProt P18627 23-450)
# T3 construct: extracellular domain; Bought protein; also called LAG3 fusion protein; human LAG3(ECD)-hFc; not shown: human Fc
# T3 sequence (looked up): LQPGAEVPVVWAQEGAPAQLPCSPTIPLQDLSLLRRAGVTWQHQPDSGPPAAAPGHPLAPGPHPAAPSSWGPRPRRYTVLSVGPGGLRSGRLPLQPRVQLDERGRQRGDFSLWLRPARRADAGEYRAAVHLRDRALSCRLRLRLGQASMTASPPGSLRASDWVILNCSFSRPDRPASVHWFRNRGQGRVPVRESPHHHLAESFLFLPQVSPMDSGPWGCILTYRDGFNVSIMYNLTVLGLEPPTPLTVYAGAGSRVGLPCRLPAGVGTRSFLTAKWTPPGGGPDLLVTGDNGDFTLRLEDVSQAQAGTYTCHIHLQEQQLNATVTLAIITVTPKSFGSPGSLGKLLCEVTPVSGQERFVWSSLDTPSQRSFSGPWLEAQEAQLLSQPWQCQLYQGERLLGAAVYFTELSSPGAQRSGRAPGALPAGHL
# T4: human LAG3 expressed on HEK293A cells (human, UniProt P18627 23-525)
# T4 construct: whole, on cells; also called HEK293A/human LAG3
# T4 sequence (looked up): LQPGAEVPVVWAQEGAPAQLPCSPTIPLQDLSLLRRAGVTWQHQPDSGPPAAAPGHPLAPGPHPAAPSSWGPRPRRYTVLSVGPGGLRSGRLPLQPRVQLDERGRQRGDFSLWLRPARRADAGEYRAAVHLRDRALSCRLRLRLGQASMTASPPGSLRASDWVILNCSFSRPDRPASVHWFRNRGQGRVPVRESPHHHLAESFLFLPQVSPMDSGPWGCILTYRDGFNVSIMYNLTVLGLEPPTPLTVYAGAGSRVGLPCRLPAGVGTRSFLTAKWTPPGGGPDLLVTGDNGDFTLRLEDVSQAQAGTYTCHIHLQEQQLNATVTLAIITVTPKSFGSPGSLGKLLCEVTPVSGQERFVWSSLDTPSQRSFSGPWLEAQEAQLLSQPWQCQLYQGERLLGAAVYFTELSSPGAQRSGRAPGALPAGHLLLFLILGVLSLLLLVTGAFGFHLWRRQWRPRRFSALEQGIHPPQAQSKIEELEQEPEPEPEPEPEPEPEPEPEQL
# What was measured:
# [1] = molecular target: T1, recombinant human LAG3(ECD)-his (Sino …); assay: SPR (BIAcore 8K), human LAG3(ECD)-his coupled to chip, antibody injected, 1:1 Langmuir
# Procedure: (§1) Serially diluted antibodies at concentrations ranging from 0.3 μM to 10 μM were injected into the SPR running buffer (HBS-EP buffer, pH7.4, GE Life Sciences; US; Cat #: BR-1006-69) at 30 μL/minute. The binding capacities were calculated with the RUs of blank controls subtracted. The association rate (Ka) and dissociation rate (Kd) were calculated using the one-to-one Langmuir binding model (BIA Evaluation Software, GE Life Sciences). The equilibrium dissociation constant K_D was calculated as the kd/ka ratio.
# [2] = molecular target: T5, monkey LAG3(ECD)-mFc protein (ACRO, Cat #: LA3-052A0) (monkey); assay: SPR (BIAcore 8K), monkey LAG3(ECD)-mFc coupled to chip, antibody injected, 1:1 Langmuir
# T5 construct: extracellular domain; Bought protein
# Procedure: as §1
# [3] = molecular target: T2, Human PBMC; assay: FACS on activated human PBMC
# Procedure: Briefly, 10^5 HEK293A cells in 50 μl PBS buffers were seeded into each well of the 96-well plates and then added with 50 μl of serially diluted anti-LAG3 antibodies (5-fold dilution, starting from 40 μg/ml). After incubated at 4° C. for 1 hour, plates were washed 3 times with PBST. Then, an APC coupled Goat Anti-Mouse IgG (BioLegend, US, Cat #: 405308) diluted 500× was added to the plates. After incubation at 4° C. for 1 hour, the plates were washed with PBS for 3 times and then cell fluorescence was monitored using a FACS machine (BD).
# Further, the binding activities of the two antibodies to actived human PBMCs were investigated by FACS. Briefly, human PBMCs were collected by density gradient centrifugation and then re-suspended in the complete medium (RPMI medium+10% FBS+ human IL-2 (20 IU/ml, R&D, Cat #: 202-IL)+ Dynabeads™ Human T-Activator CD3/CD28 (Gibco, Cat #: 11132D)) at 37° C. under 5% CO_2 in a humidified incubator for 2 days to get activated T cells. The cells were then collected and tested by FACS as described in Example 6.
# [4] = molecular target: T1, recombinant human LAG3(ECD)-his (Sino …); assay: SPR (BIAcore 8K), human LAG3(ECD)-his coupled to chip, antibody injected, 1:1 Langmuir; printed a second time as 'Ka values', read as Kd
# Procedure: as §1
# [5] = molecular target: T3, hLAG-3-hIg fusion protein (human LAG-3 …); assay: FACS blocking assay: hLAG-3-hIg preincubated with the antibody, then binding to MHC II on Daudi cells
# [6] = molecular target: T4, human LAG3 expressed on HEK293A cells; assay: FACS on HEK293A cells expressing human LAG3
# [7] = molecular target: T4, human LAG3 expressed on HEK293A cells; assay: FACS on HEK293A cells expressing human LAG3; remark: listed apart in the source
# [8] = molecular target: T3, hLAG-3-hIg fusion protein (human LAG-3 …); assay: FACS blocking assay: hLAG-3-hIg preincubated with the antibody, then binding to MHC II on Daudi cells; remark: listed apart in the source
Binder,binding result [5],binding result [6],binding result [7],binding result [8],further results
"humanized antibody 101F4H2L2 (antibody, human IgG4 S228P, kappa, V domains shown, Human IgG4 (S228P)/kappa) VH: QVQLVQSGAEVKKPGASVKVSCKVSGYTFTDYEMHWVRQAPGKGLEWMGAIDPETGGIVYNQRFKGRVTLTADTSTDTAYMELSSLRSEDTAVYYCATAGWGYWGQGTTVTVSS VL: DIQMTQSPSSLSASVGDRVTITCKASQDINSYLSWYQQKPGKAPKLLIYRANRLLDGVPSRFSGSGSGQDYTLTISSLQPEDFATYYCLQYDEFPFTFGQGTKLEIKR",–,–,–,–,Kd [1]: 414 nM; kon [1]: 960000 M⁻¹ s⁻¹; Kd [2]: 0.488 nM; EC50 (read off the curve) [3]: ~0.1 µg/mL; koff [4]: 0.398 s⁻¹
"humanized antibody 101F4H0L0 (antibody, human IgG4 S228P, kappa, V domains shown, Human IgG4 (S228P)/kappa) VH: QVQLVQSGAEVKKPGASVKVSCKVSGYTFTDYEMHWVRQAPGKGLEWMGAIDPETGGIVYNQRFKGRVTMTEDTSTDTAYMELSSLRSEDTAVYYCATAGWGYWGQGTTVTVSS VL: DIQMTQSPSSLSASVGDRVTITCKASQDINSYLSWYQQKPGKAPKLLIYRANRLLDGVPSRFSGSGSGTDFTLTISSLQPEDFATYYCLQYDEFPFTFGQGTKLEIKR",binds,binds,–,–,–
"humanized antibody 101F4H2L3 (antibody, human IgG4 S228P, kappa, V domains shown, Human IgG4 (S228P)/kappa) VH: QVQLVQSGAEVKKPGASVKVSCKVSGYTFTDYEMHWVRQAPGKGLEWMGAIDPETGGIVYNQRFKGRVTLTADTSTDTAYMELSSLRSEDTAVYYCATAGWGYWGQGTTVTVSS VL: DIQITQSPSSLSASVGDRVTITCKASQDINSYLSWFQQKPGKAPKLLIYRANRLLDGVPSRFSGSGSGQDYTLTISSLQPEDFATYYCLQYDEFPFTFGQGTKLEIKR",binds,binds,–,–,–
"humanized antibody 101F4H3L2 (antibody, human IgG4 S228P, kappa, V domains shown, Human IgG4 (S228P)/kappa) VH: QVQLVQSGAEVKKPGASVKVSCKASGYTFTDYEMHWVRQAPGKGLEWMGAIDPETGGIVYNQRFKGRATLTADTSTDTAYMELSSLRSEDTAVYYCAGAGWGYWGQGTTVTVSS VL: DIQMTQSPSSLSASVGDRVTITCKASQDINSYLSWYQQKPGKAPKLLIYRANRLLDGVPSRFSGSGSGQDYTLTISSLQPEDFATYYCLQYDEFPFTFGQGTKLEIKR",binds,binds,–,–,–
"humanized antibody 101F4H3L3 (antibody, human IgG4 S228P, kappa, V domains shown, Human IgG4 (S228P)/kappa) VH: QVQLVQSGAEVKKPGASVKVSCKASGYTFTDYEMHWVRQAPGKGLEWMGAIDPETGGIVYNQRFKGRATLTADTSTDTAYMELSSLRSEDTAVYYCAGAGWGYWGQGTTVTVSS VL: DIQITQSPSSLSASVGDRVTITCKASQDINSYLSWFQQKPGKAPKLLIYRANRLLDGVPSRFSGSGSGQDYTLTISSLQPEDFATYYCLQYDEFPFTFGQGTKLEIKR",binds,binds,–,–,–
"humanized antibody 134G10H2L2 (antibody, human IgG4 S228P, kappa, V domains shown, Human IgG4 (S228P)/kappa) VH: EVQLVESGGGLVKPGGSLRLSCAASGFTFSSFGMSWVRQAPGKRLEWVSIISSGGTYTFYPDILKGRFTISRDNAKNSLYLQMNSLRAEDTAVYYCARVYSDYDGRFDYWGQGTLVTVSS VL: DIVMTQSPSSLAVSLGERATINCKSSQSLLNSGNQKNYLAWYQQKPGQPPKLLIYGASTRESGVPDRFSGSGSGTDFTLTISSLQAEDVAVYYCQNDHSYPLTFGAGTKLEIKR",–,–,binds,binds,–
"humanized antibody 134G10H0L0 (antibody, human IgG4 S228P, kappa, V domains shown, Human IgG4 (S228P)/kappa) VH: EVQLVESGGGLVKPGGSLRLSCAASGFTFSSFGMSWVRQAPGKGLEWVSIISSGGTYTFYPDILKGRFTISRDNAKNSLYLQMNSLRAEDTAVYYCARVYSDYDGRFDYWGQGTLVTVSS VL: DIVMTQSPDSLAVSLGERATINCKSSQSLLNSGNQKNYLAWYQQKPGQPPKLLIYGASTRESGVPDRFSGSGSGTDFTLTISSLQAEDVAVYYCQNDHSYPLTFGQGTKLEIKR",–,–,binds,binds,–
"humanized antibody 134G10H2L3 (antibody, human IgG4 S228P, kappa, V domains shown, Human IgG4 (S228P)/kappa) VH: EVQLVESGGGLVKPGGSLRLSCAASGFTFSSFGMSWVRQAPGKRLEWVSIISSGGTYTFYPDILKGRFTISRDNAKNSLYLQMNSLRAEDTAVYYCARVYSDYDGRFDYWGQGTLVTVSS VL: DIVMTQSPSSLAVSLGERATINCKSSQSLLNSGNQKNYLAWYQQKPGQPPKLLIYGASTRESGVPDRFTGSGSGTDFTLTISSLQAEDVAVYYCQNDHSYPLTFGAGTKLEIKR",–,–,–,–,Kd [1]: 0.262 nM; kon [1]: 166000 M⁻¹ s⁻¹; Kd [2]: 0.000201 nM
"humanized antibody 134G10H3L2 (antibody, human IgG4 S228P, kappa, V domains shown, Human IgG4 (S228P)/kappa; also called 134G10H3VL2) VH: EVQLVESGGGLVKPGGSLRLSCAASGFTFSSFGMSWVRQAPGKRLEWVGIISSGGTYTFYPDILKGRFTISRDNAKNSLYLQMNSLRAEDTAVYYCARVYSDYDGRFDYWGQGTLVTVSS VL: DIVMTQSPSSLAVSLGERATINCKSSQSLLNSGNQKNYLAWYQQKPGQPPKLLIYGASTRESGVPDRFSGSGSGTDFTLTISSLQAEDVAVYYCQNDHSYPLTFGAGTKLEIKR",–,–,binds,binds,–
"humanized antibody 134G10H3L3 (antibody, human IgG4 S228P, kappa, V domains shown, Human IgG4 (S228P)/kappa) VH: EVQLVESGGGLVKPGGSLRLSCAASGFTFSSFGMSWVRQAPGKRLEWVGIISSGGTYTFYPDILKGRFTISRDNAKNSLYLQMNSLRAEDTAVYYCARVYSDYDGRFDYWGQGTLVTVSS VL: DIVMTQSPSSLAVSLGERATINCKSSQSLLNSGNQKNYLAWYQQKPGQPPKLLIYGASTRESGVPDRFTGSGSGTDFTLTISSLQAEDVAVYYCQNDHSYPLTFGAGTKLEIKR",–,–,binds,binds,–
